# Data published in patent US20240270821A1, “GIP/GLP1/GCG TRI-RECEPTOR AGONISTS AND USES THEREOF” (priority 2023, published 2024).
# Residue numbers refer to the chain shown, from its start.
# T1: human GIP receptor (human) (UniProt P48546)
# T1 sequence (looked up): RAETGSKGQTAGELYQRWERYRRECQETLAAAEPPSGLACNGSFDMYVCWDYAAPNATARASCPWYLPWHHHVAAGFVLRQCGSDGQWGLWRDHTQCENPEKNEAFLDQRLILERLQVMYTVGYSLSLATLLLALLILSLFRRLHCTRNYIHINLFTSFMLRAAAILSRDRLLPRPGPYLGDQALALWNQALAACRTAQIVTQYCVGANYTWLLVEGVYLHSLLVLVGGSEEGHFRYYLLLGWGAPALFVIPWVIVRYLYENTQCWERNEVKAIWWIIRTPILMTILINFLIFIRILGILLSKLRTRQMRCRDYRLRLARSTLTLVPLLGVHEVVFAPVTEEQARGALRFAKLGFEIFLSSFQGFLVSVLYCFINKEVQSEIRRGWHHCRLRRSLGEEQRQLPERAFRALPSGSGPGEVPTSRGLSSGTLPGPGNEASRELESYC
# B1: Example 1012 (peptide)
# chain: YXQGTFTSDXSXXLDXKAQXAFIEYLIAGGPSSGAPPPSESE
# modifications: Aib, 4Pal, Orn, αMeL, Me4Pal; K (γGlu)2-C18 diacid; amide; synthetic construct; SITE 2: note = 2-Aminoisobutyric Acid; SITE 10: note = 3-(4-Pyridyl)-L-alanine; SITE 12: note = L-ornithine; SITE 13: note = alpha-methyl-leucine; SITE 16: note = L-ornithine; SITE 17: note = Lysine is chemically modified through conjugation of the epsilon-amino group of the Lys
# B2: Example 988 (peptide)
# chain: YXQGTFTSDXSXXLDKKAQXAFIEXLIEXGPSSGEPPPSGSE
# modifications: non-natural residues; Lys acylated AEEA-(γGlu)2-C18 diacid; C-terminal amide; synthetic construct; SITE 2: note = 2-Aminoisobutyric Acid; SITE 10: note = 3-(4-Pyridyl)-L-alanine; SITE 12: note = L-ornithine; SITE 13: note = alpha-methyl-leucine; SITE 17: note = Lysine is chemically modified through conjugation of the epsilon-amino group of the Lysine side chain with (2-[2-(2-
# B3: Example 1023 (peptide)
# chain: B1 chain with X12Q, A28E, G29A, E40G
# modifications: not fully specified; acylated lysine (γGlu)2-C18 diacid; non-natural residues; C-terminal amide; synthetic construct; SITE 2: note = 2-Aminoisobutyric Acid; SITE 10: note = 3-(4-Pyridyl)-L-alanine; SITE 13: note = alpha-methyl-leucine; SITE 16: note = L-ornithine; SITE 17: note = Lysine is chemically modified through conjugation of the epsilon-amino group of the Lysine side chain with (gamma-Gl)
# B4: Example 1022 (peptide)
# chain: B1 chain with X12Q, A28E, G29A, E40G
# modifications: not fully specified; Aib, 4Pal, αMeL, Orn, Me4Pal, acylated K, C-terminal amide; synthetic construct; SITE 2: note = 2-Aminoisobutyric Acid; SITE 10: note = 3-(4-Pyridyl)-L-alanine; SITE 13: note = alpha-methyl-leucine; SITE 16: note = L-ornithine; SITE 17: note = Lysine is chemically modified through conjugation of the epsilon-amino group of the Lysine side chain with (2-[2-(2-
# B5: Example 1009 (peptide)
# chain: B1 chain with X16K, E40G
# modifications: synthetic construct; SITE 2: note = 2-Aminoisobutyric Acid; SITE 10: note = 3-(4-Pyridyl)-L-alanine; SITE 12: note = L-ornithine; SITE 13: note = alpha-methyl-leucine; SITE 17: note = Lysine is chemically modified through conjugation of the epsilon-amino group of the Lysine side chain with (gamma-Gl)
# B6: Example 1010 (peptide)
# chain: B1 chain with X16K
# modifications: not fully specified; synthetic construct; SITE 2: note = 2-Aminoisobutyric Acid; SITE 10: note = 3-(4-Pyridyl)-L-alanine; SITE 12: note = L-ornithine; SITE 13: note = alpha-methyl-leucine; SITE 17: note = Lysine is chemically modified through conjugation of the epsilon-amino group of the Lysine side chain with (gamma-Gl)
# B7: Example 1011 (peptide)
# chain: B1 chain with E40G
# modifications: non-natural residues; Lys acylated C18 diacid; C-terminal amide; synthetic construct; SITE 2: note = 2-Aminoisobutyric Acid; SITE 10: note = 3-(4-Pyridyl)-L-alanine; SITE 12: note = L-ornithine; SITE 13: note = alpha-methyl-leucine; SITE 16: note = L-ornithine; SITE 17: note = Lysine is chemically modified through conjugation of the epsilon-amino group of the Lys
# B8: Example 1008 (peptide)
# chain: B1 chain with X12Q, A35E, E40G
# modifications: synthetic construct; SITE 2: note = 2-Aminoisobutyric Acid; SITE 10: note = 3-(4-Pyridyl)-L-alanine; SITE 13: note = alpha-methyl-leucine; SITE 16: note = L-ornithine; SITE 17: note = Lysine is chemically modified through conjugation of the epsilon-amino group of the Lysine side chain with (gamma-Gl)
# B9: Example 1024 (peptide)
# chain: B2 chain with X12Q, X25Y, X29A, E35A
# modifications: Aib, 4Pal, αMeL, Me4Pal; K acylated AEEA-(γGlu)2-C18 diacid; amide; synthetic construct; SITE 2: note = 2-Aminoisobutyric Acid; SITE 10: note = 3-(4-Pyridyl)-L-alanine; SITE 13: note = alpha-methyl-leucine; SITE 17: note = Lysine is chemically modified through conjugation of the epsilon-amino group of the Lysine side chain with (2-[2-(2-Amino-ethoxy)-ethoxy]-acetyl)
# B10: Example 990 (peptide)
# chain: B2 chain
# modifications: Aib, 4Pal, Me4Pal, Orn, alpha-methyl-Leu, lipidated Lys, amide; synthetic construct; SITE 2: note = 2-Aminoisobutyric Acid; SITE 10: note = 3-(4-Pyridyl)-L-alanine; SITE 12: note = L-ornithine; SITE 13: note = alpha-methyl-leucine; SITE 17: note = Lysine is chemically modified through conjugation of the epsilon-amino group of the Lysine side chain with (gamma-Gl)
# B11: Example 96 (peptide)
# chain: YXQGTFTSDFSXXLDKKAQXQFIEYLLAGGPSSGAPPPEGS
# modifications: synthetic construct; SITE 2: note = 2-Aminoisobutyric Acid; SITE 12: note = L-ornithine; SITE 13: note = alpha-methyl-leucine; SITE 17: note = Lysine is chemically modified through conjugation of the epsilon-amino group of the Lysine side chain with (2-[2-(2-Amino-ethoxy)-ethoxy]-acetyl)-(gamma-Glu)
# B12: Example 992 (peptide)
# chain: YXQGTFTSDXSXXLDXKAQXQFIEXLIAGGPSSGAPPPSGSEE
# modifications: non-natural residues (Aib, 4Pal, Orn, Me4Pal, αMeY); lipidated Lys; C-amide; synthetic construct; SITE 2: note = 2-Aminoisobutyric Acid; SITE 10: note = 3-(4-Pyridyl)-L-alanine; SITE 12: note = L-ornithine; SITE 13: note = alpha-methyl-leucine; SITE 16: note = L-ornithine; SITE 17: note = Lysine is chemically modified through conjugation of the epsilon-amino group of the Lys
# B13: Example 1002 (peptide)
# chain: B12 chain with X25Y, I27L
# modifications: non-natural residues; (γGlu)2-C18 diacid on Lys; C-terminal amide; synthetic construct; SITE 2: note = 2-Aminoisobutyric Acid; SITE 10: note = 3-(4-Pyridyl)-L-alanine; SITE 12: note = L-ornithine; SITE 13: note = alpha-methyl-leucine; SITE 16: note = L-ornithine; SITE 17: note = Lysine is chemically modified through conjugation of the epsilon-amino group of the Lys
# B14: Example 999 (peptide)
# chain: B12 chain with X12Q, Q21E, I27L
# modifications: Aib, 4Pal, αMeL, Orn, Me4Pal, αMeY; γGlu2-C18 diacid Lys; amide; synthetic construct; SITE 2: note = 2-Aminoisobutyric Acid; SITE 10: note = 3-(4-Pyridyl)-L-alanine; SITE 13: note = alpha-methyl-leucine; SITE 16: note = L-ornithine; SITE 17: note = Lysine is chemically modified through conjugation of the epsilon-amino group of the Lysine side chain with (gamma-Gl)
# B15: Example 1003 (peptide)
# chain: B12 chain with Q21E, X25Y, I27L
# modifications: (γGlu)2-C18 diacid on Lys; non-natural residues; amide; synthetic construct; SITE 2: note = 2-Aminoisobutyric Acid; SITE 10: note = 3-(4-Pyridyl)-L-alanine; SITE 12: note = L-ornithine; SITE 13: note = alpha-methyl-leucine; SITE 16: note = L-ornithine; SITE 17: note = Lysine is chemically modified through conjugation of the epsilon-amino group of the Lys
# B16: Example 995 (peptide)
# chain: B12 chain with I27L
# modifications: non-natural residues, (γGlu)2-diacid acylated Lys, C-terminal amide; synthetic construct; SITE 2: note = 2-Aminoisobutyric Acid; SITE 10: note = 3-(4-Pyridyl)-L-alanine; SITE 12: note = L-ornithine; SITE 13: note = alpha-methyl-leucine; SITE 16: note = L-ornithine; SITE 17: note = Lysine is chemically modified through conjugation of the epsilon-amino group of the Lys
# B17: Example 1000 (peptide)
# chain: B12 chain with X25Y
# modifications: Lys acylated with (γGlu)2-C18 diacid; non-natural residues; C-amide; synthetic construct; SITE 2: note = 2-Aminoisobutyric Acid; SITE 10: note = 3-(4-Pyridyl)-L-alanine; SITE 12: note = L-ornithine; SITE 13: note = alpha-methyl-leucine; SITE 16: note = L-ornithine; SITE 17: note = Lysine is chemically modified through conjugation of the epsilon-amino group of the Lys
# Target: hGLP-1R (Homo sapiens, UniProt P43220)
# Sequence (P43220 24-463): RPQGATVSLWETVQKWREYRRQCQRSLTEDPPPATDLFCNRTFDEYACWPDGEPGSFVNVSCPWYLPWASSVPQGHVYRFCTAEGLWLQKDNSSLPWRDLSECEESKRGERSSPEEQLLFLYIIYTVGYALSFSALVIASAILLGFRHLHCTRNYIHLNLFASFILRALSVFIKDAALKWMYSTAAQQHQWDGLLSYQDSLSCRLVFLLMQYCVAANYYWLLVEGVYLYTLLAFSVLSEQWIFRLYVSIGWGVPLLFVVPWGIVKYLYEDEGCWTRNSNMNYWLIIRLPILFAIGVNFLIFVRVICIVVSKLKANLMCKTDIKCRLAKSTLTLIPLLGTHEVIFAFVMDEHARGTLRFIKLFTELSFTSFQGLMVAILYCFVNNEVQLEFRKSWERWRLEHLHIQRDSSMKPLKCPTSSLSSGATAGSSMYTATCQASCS
# Assay: cell-based or functional assay
Binder,"cAMP Rel EC50, nM (1% HSA) [nM]",Relative cAMP EC50 [nM],"cAMP Rel EC50, nM (in the presence of 1% HSA) [nM]"
B1,223,,
B2,743,9.5,
B3,230,,
B4,203,,
B5,174,2.1,
B6,218,2.89,
B7,148,,
B8,126,1.09,
B9,330,,
B10,557,5.78,
B11,,3.92,836
B12,643,,
B13,1290,,
B14,3020,,
B15,1950,,
B16,1660,,
B17,279,,

# Target: T1, human GIP receptor (human)
# Assay: cell-based or functional assay
Binder,"cAMP Rel EC50, nM (1% HSA) [nM]",Relative cAMP EC50 [nM],"cAMP Rel EC50, nM (in the presence of 1% HSA) [nM]"
B1,15.9,,
B2,11.8,0.198,
B3,26,,
B4,27.9,,
B5,9.72,0.13,
B6,15.1,0.159,
B7,13.5,,
B8,15.2,0.14,
B9,32.5,,
B10,9.87,0.115,
B11,,0.456,49.3
B12,12.5,,
B13,11.6,,
B14,10.4,,
B15,15.9,,
B16,6.12,,
B17,15.5,,

# Target: human glucagon receptor (human) (UniProt P47871)
# Sequence (P47871 26-477): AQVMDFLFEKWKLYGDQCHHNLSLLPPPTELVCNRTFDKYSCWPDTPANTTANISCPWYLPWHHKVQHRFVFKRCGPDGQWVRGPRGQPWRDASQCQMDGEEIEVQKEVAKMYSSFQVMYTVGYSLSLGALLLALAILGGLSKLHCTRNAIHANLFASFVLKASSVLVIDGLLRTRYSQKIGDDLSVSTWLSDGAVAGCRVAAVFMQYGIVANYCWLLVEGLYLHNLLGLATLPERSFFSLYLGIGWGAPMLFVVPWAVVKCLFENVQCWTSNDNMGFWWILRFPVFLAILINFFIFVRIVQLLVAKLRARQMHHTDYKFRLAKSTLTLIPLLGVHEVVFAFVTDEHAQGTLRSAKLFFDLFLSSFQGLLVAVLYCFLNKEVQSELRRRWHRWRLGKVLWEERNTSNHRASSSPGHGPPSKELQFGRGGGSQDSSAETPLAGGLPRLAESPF
# Assay: cell-based or functional assay
Binder,"cAMP Rel EC50, nM (1% HSA) [nM]",Relative cAMP EC50 [nM],"cAMP Rel EC50, nM (in the presence of 1% HSA) [nM]"
B1,533,,
B2,320,2.52,
B3,856,,
B4,586,,
B5,268,4.21,
B6,214,4.5,
B7,459,,
B8,1010,7.47,
B9,760,,
B10,276,2.47,
B11,,14.1,2150
B12,863,,
B13,197,,
B14,2130,,
B15,371,,
B16,295,,
B17,501,,
